Assay results reported in PMC4578157.

Biological target: Duffy antigen receptor for chemokines (DARC) (human) (UniProt Q16570)
Experiment: SPR

Row | Substance | Kd [µM]
1 | HlgA (from UniProt P0A074 30-309) (natural protein) | 0.0292
2 | HlgC (from UniProt Q07227 30-315) (natural protein) | 0.229
3 | LukE (from UniProt O54081 29-314) (natural protein) | 0.0564
